From US20060258570A1

Biological target: fibrinogen
Experiment: cell-based or functional assay

Substance: decorin core protein
- Final Abs (405 nm) of thrombin-induced clot at [Decorin] 0.2 mM: 0.16 Abs 405 nm
- Final Abs (405 nm) of thrombin-induced clot at [Decorin] 0.4 mM: 0.145 Abs 405 nm
- Final Abs (405 nm) of thrombin-induced clot at [Decorin] 1.0 mM: 0.12 Abs 405 nm
- Final Abs (405 nm) of thrombin-induced clot at [Decorin] 2.0 mM: 0.113 Abs 405 nm
- Rate (mAbs/min) of thrombin-induced clotting at [Decorin] 0.2 mM: 61.8 mAbs/min
- Rate (mAbs/min) of thrombin-induced clotting at [Decorin] 0.4 mM: 55 mAbs/min
- Rate (mAbs/min) of thrombin-induced clotting at [Decorin] 1.0 mM: 38.8 mAbs/min
- Rate (mAbs/min) of thrombin-induced clotting at [Decorin] 2.0 mM: 34.5 mAbs/min
